Values of other authors as cited in PMC11231610, “Fatty acid binding to the human transport proteins FABP3, FABP4, and FABP5 from a Ligand’s perspective” (The Journal of Biological Chemistry, 2024).

Target: Cgi-58 (Mus musculus) (UniProt Q9DBL9)
Experiment: MST

Chain of FABP4 (P04117 2-132): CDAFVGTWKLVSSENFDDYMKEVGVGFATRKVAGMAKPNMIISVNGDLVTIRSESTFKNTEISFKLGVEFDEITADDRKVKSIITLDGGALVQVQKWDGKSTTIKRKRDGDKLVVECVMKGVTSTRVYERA
Chain of Cgi-58 (Mus musculus) (Q9DBL9 whole entry): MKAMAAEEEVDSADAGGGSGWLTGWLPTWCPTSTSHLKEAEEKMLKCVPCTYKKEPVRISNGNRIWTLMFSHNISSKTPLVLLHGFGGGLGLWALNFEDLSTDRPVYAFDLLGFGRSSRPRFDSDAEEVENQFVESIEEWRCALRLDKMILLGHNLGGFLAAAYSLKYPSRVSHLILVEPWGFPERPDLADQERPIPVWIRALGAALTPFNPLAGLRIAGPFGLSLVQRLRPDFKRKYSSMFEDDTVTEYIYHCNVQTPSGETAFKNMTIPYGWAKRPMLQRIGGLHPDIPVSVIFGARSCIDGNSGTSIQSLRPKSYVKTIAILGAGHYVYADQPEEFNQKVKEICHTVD

- Kd: 192 µM
Substance: FABP4 (from UniProt P04117)
